Residue numbers refer to the chain shown, from its start. Values belong to the binder of their own block, whether it stands above or below them.
What was measured:
[1] = biological target: T1, Cynomolgus TNFR2-His (Sino 90102-C08H) (cynomolgus monkey, UniProt A0A2K5VET2 132-366); experiment: ELISA, plate coated with Cynomolgus TNFR2-His, detection with anti-human IgG Fc-HRP [panel B]
T1 construct: Bought protein; also called cynomolgus monkey TNFR2; recombinant cynomolgus monkey TNFR2 protein; not shown: His tag
T1 sequence: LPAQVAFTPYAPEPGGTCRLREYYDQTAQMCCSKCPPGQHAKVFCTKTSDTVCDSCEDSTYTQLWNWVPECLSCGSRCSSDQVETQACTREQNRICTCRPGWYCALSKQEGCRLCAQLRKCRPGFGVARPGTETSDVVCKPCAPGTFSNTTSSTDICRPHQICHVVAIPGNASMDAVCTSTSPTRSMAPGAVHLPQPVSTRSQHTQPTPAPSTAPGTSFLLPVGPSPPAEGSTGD
Method: (§1) The test humanized antibody against TNFR2 (as described in Example 1, the antibody was comprised of variable regions linked to IgG-Fc; the WT chimeric antibody also adopted the IgG-Fc structure) was subjected to 3.33-fold gradient dilution, loaded with 100 μl/well, and incubated with shaking at room temperature for 1.5 hours. The plate was washed, and then a working solution of murine anti-human IgG Fc-HRP (diluted at 1:10000) was added, loaded with 100 μl/well, and incubated with shaking at room temperature for 1.0 hour. The plate was washed again, and then the substrate TMB of HRP was added to develop colour. A stop solution was added to stop the reaction, and then a microplate reader (MD 13) was used to read the absorbance value. The binding curve of an antibody was drawn with antibody concentration as the abscissa and corresponding OD value as the ordinate, and fitted with four parameters (GraphPad Prism9) to calculate the EC50 value. The smaller the EC50 value, the stronger the binding ability of an antibody to human/cynomolgus monkey TNFR2. The binding effect of a humanized antibody was normalized to its corresponding human-murine chimeric antibody WT (see SEQ ID NOs: 38-43 for the sequence). The higher the percentage value, the better the binding effect of the humanized antibody. […]

[2] = biological target: T2, Human TNFR2-His (Sino 10417-H08H) (human, UniProt P20333 23-257); experiment: ELISA, plate coated with Human TNFR2-His, detection with anti-human IgG Fc-HRP [panel B]
T2 construct: Bought protein; also called recombinant human TNFR2 protein; not shown: His tag
T2 sequence (looked up): T1 sequence with G16S, P36S, Q117P, H164N, A210E, G216S, V223M
Method: as §1

[3] = biological target: T2, Human TNFR2-His (Sino 10417-H08H); experiment: ELISA, plate coated with Human TNFR2-His, detection with anti-human IgG Fc-HRP [panel A]
Method: as §1

EC50 (read off the curve) [1]: ~10 ng/mL
EC50 (read off the curve) [2]: ~20 ng/mL
B1: 219-WT (antibody, V domains shown)
VH: EVQLQESGAELVRPGASVKLSCKASGYSFTNYWMNWVKQRPGQGLEWIGMIHPSDTETRLNQNFKDKATLTVDKSSSTSYMQLSSPTSEDSAVYYCARGEGLGAARSVSMDYWGQGTTVTVSS
VL: DILMTQSPSSLSASLGDRVTISCRASQDISNYLNWYQQKPDGTVKVLIYYTAILHSGVPSRFSGSGSGTDYSLTISNLEQEDIATYFCQQGNTLPWTFGGGTKLEIK
notes: Human-murine chimeric wild-type molecule

EC50 (read off the curve) [3]: ~10 ng/mL
B2: 001-WT (antibody, V domains shown)
VH: EVQLQESGGGLVQPGGSLNLSCAASGFAFSTYDLSWVRQTPEKRLEWVAYINNGGISTYYSDTVKGRFTISRDNAKNTLYLQMSSLKSEDTAMYYCVRGPFYGSANYFDYWGQGTTVTVSS
VL: EIVMTQSPASLSLSVGETVTITCRTSESIYSNLPWYQQKQGKSPQLLVYDATKLAEGVPSRFSGSESGTQYSLKINSLQSEDFGTYYCQHFWVTPWTFGGGTKLEIK
notes: Human-murine chimeric wild-type molecule; also called human-murine chimeric antibody WT of #001

Source: patent publication US20240109974A1 (SHANDONG SIMCERE BIOPHARMACEUTICAL, published 2024)
